US20220242953A1 (JIANGSU HENGRUI MEDICINE, published 2022)

T1: human B7H3 on the cell surface (A498, CT26/hB7H3, U87, Detroit562 cells) (human, UniProt Q5ZPR3 29-534)
T1 sequence: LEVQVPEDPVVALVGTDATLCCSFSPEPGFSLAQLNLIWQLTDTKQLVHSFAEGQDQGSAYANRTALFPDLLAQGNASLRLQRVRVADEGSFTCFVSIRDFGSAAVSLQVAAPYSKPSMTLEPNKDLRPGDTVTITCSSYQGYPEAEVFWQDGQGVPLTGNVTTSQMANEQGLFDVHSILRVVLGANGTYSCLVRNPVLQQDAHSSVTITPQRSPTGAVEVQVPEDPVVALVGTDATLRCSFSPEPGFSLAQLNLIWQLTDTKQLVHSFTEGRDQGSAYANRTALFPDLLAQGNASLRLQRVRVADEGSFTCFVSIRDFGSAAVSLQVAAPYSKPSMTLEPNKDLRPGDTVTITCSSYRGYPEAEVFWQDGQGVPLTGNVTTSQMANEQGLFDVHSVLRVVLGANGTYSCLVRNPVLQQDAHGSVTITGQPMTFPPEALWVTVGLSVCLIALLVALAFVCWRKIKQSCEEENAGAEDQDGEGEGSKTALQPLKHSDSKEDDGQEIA

T2: Human B7H3 antigen for detection (SinoBiological cat #11188-H08H) (human, UniProt Q5ZPR3 29-461)
T2 construct: Bought antigen
T2 sequence: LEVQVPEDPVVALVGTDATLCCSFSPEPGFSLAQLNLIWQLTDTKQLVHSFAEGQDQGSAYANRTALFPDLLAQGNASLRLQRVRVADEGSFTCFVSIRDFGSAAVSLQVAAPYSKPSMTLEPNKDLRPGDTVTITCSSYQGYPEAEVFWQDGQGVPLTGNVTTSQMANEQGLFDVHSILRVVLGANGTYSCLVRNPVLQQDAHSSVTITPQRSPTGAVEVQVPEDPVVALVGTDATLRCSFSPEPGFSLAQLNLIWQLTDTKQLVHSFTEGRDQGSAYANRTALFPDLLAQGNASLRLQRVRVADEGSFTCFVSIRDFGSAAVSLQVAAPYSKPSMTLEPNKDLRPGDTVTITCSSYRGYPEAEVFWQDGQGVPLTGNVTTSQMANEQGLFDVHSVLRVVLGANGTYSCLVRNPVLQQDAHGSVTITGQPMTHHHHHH

T3: Monkey B7H3 antigen for detection (SinoBiological cat #90806-C08H) (monkey (cyno))
T3 construct: Bought antigen; also called monkey (cyno) B7H3
T3 chain: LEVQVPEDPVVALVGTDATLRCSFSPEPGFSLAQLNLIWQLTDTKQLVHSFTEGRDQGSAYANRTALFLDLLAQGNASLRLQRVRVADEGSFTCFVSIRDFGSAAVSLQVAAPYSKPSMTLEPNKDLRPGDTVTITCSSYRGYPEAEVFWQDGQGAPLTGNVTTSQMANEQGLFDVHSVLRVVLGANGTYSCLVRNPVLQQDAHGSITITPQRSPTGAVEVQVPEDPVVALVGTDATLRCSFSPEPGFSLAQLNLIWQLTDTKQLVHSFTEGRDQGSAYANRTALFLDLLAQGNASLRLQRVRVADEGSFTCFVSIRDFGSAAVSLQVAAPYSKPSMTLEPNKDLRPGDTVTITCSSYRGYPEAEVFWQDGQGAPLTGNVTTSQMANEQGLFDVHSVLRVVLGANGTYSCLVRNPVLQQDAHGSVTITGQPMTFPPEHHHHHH


Assays:
[1] = biological target: T1, human B7H3 on the cell surface (A498, …); test: cell-based or functional assay
[2] = biological target: T4, Human CD3 antigen for detection (SinoBiological cat #CT038-H2508H); human CD3 epsilon-His and human CD3 … (human, UniProt P07766 23-126; P04234 22-105); test: Biacore T200 SPR, bispecific antibody captured, antigen as analyte, 1:1 Langmuir fit
T4 construct: Bought antigen
Method: (§1) The detection of antibody affinity to B7H3 and CD3 was performed in the form of capture antibody. BsAb was captured by CM5 biosensor chip (Cat. #BR-1005-30, GE) or Protein A (Cat. #29127556, GE) biosensor chip coupled with Anti-Human IgG Antibody (Cat. #BR-1008-39, Lot. #10260416, GE), and then each antigen flowed through the surface of the chip. The reaction signals were detected in real time with the Biacore T200 instrument to obtain the binding and dissociation curves. After the dissociation of each experimental cycle was completed, the chip was washed and regenerated with regeneration buffer Glycine1.5 (Cat #BR100354, GE) or 3 M MgCl₂ (from Human antibody capture kit, Cat. #BR100839, GE). The data were fitted with the (1:1) Langmuir model using GE Biacore T200 Evaluation version 3.0 software, and the affinity values were obtained.

[3] = biological target: T5, Monkey CD3 antigen for detection (Acro biosystem cat #CDD-C52W4); monkey CD3 epsilon-His and monkey CD3 … (monkey (cyno), UniProt Q95LI5 22-117; Q95LI8 22-105); test: as above
T5 construct: Bought antigen
Method: as §1

[4] = biological target: T2, Human B7H3 antigen for detection …; test: as above
Method: as §1

[5] = biological target: T3, Monkey B7H3 antigen for detection …; test: as above
Method: as §1

[6] = biological target: human CD3 on the cell surface (Jurkat recombinant cells; T cells of PBMC) (human, UniProt P07766 23-207; P04234 22-171); test: FACS on Jurkat recombinant cells expressing CD3, APC anti-human IgG Fc detection, geometric mean fluorescence
Method: (§2) The ability of bispecific antibodies to bind to cell surface antigens was detected by FACS method.
(§3) FACS buffer (98% PBS, 2% FBS) was added into a 96-well U-shaped bottom plate (corning, 3795) to resuspend the cells, the serially diluted antibodies were added, incubated at 4° C. for 1 hour, and the plate was washed with FACS buffer twice. Then APC anti-human IgG Fc Antibody (biolegend, Cat #409306, dilution at 1:50) was added into each well, incubated at 4° C. for 30 minutes, washed twice, the cells were resuspended in FACS buffer, and finally the fluorescence signal values were read by FACS CantoII (BD).

[7] = biological target: T1, human B7H3 on the cell surface (A498, …); test: FACS on CT26/hB7H3 cells over-expressing human B7H3, APC anti-human IgG Fc detection, geometric mean fluorescence
Method: as §2, §3

[8] = biological target: T1, human B7H3 on the cell surface (A498, …); test: FACS on A498 cells expressing human B7H3, APC anti-human IgG Fc detection, geometric mean fluorescence
Method: as §2, §3

Sequence of human CD3 on the cell surface (Jurkat recombinant cells; T cells of PBMC) (P07766 23-207, chain 1 of 2): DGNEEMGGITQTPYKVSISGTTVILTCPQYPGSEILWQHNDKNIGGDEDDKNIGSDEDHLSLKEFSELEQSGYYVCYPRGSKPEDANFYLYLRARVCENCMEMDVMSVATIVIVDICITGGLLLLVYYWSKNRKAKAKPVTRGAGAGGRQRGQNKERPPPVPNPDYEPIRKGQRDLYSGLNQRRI
Sequence of human CD3 on the cell surface (Jurkat recombinant cells; T cells of PBMC) (P04234 22-171, chain 2 of 2): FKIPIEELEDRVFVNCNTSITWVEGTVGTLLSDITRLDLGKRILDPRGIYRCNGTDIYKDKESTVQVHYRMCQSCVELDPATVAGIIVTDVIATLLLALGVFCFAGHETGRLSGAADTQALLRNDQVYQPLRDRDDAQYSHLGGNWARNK
T4 sequence (P07766 other isoform, or with tags, fused parts or gaps H2508H H2508H, chain 1 of 2): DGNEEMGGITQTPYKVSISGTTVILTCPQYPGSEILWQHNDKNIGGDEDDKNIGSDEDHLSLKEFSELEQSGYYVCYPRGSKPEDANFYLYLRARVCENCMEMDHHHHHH
T4 sequence (P04234 other isoform, or with tags, fused parts or gaps H2508H H2508H, chain 2 of 2): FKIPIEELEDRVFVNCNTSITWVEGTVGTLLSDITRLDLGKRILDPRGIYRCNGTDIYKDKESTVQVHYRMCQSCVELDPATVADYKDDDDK
T5 sequence (Q95LI5 other isoform, or with tags, fused parts or gaps mutant, chain 1 of 2): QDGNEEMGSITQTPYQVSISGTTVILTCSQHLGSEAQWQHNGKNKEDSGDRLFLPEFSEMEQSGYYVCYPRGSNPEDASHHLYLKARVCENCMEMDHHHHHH
T5 sequence (Q95LI8 other isoform, or with tags, fused parts or gaps mutant, chain 2 of 2): as the sequence (P04234 other isoform, or with tags, fused parts or gaps H2508H H2508H, chain 2 of 2) above, with I5V, N15K, I20V, S32T, D33N, I34N, T64A, S74N, V83L counted along it

Row | Binder | Emax (%), PBMC-mediated killing of A498 cells (B7H3 high) [1] [%] | Emax (%), PBMC-mediated killing of Detroit562 cells (B7H3 low) [1] [%] | Emax (%), PBMC-mediated killing of U87 cells (B7H3 intermediate) [1] [%] | IC50 (nM), PBMC-mediated killing of A498 cells (B7H3 high) [1] [nM] | IC50 (nM), PBMC-mediated killing of Detroit562 cells (B7H3 low) [1] [nM] | IC50 (nM), PBMC-mediated killing of U87 cells (B7H3 intermediate) [1] [nM] | Kd [2] [nM] | Kd [3] [nM] | Kd [4] [nM] | Kd [5] [nM] | EC50 (read off the curve) [6] [nM] | EC50 (read off the curve) [7] [nM] | EC50 (read off the curve) [8] [nM]
1 | bispecific antibody 118 (AFF 6-3) (bispecific antibody, B7H3 bivalent CD3-B7H3 bispecific antibody, CD3 VH HRH-3, CD3 scFv at the N-terminus) chain 1: not shown chain 2: QTVVTQEPSFSVSPGGTVTLTCGLSSGSVSTSHYPSWYQQTPGQAPRMLIYNTNTRSSGVPDRFSGSILGNKAALTITGAQADDESDYYCAIHVDRDIWVFGGGTKLTVLGGGGSGGGGSGGGGSQVQLVQSGGGVVQPGTSLRLSCAASGFIFSSSAMHWVRQAPGKGLEWVAVISYDGSNKYYVDSVKGRFTISRDNSKNTLYLQMNSLRAEDTAVYYCARSARLYASFDYWGQGALVTVSSGGGDKTHTCPPCPAPEAAGGPSVFLFPPKPKDTLMISRTPEVTCVVVDVSHEDPEVKFNWYVDGVEVHNAKTKPREEQYNSTYRVVSVLTVLHQDWLNGKEYKCKVSNKALPAPIEKTISKAKGQPREPQVCTLPPSREEMTKNQVSLSCAVKGFYPSDIAVEWESNGQPENNYKTTPPVLDSDGSFFLVSKLTVDKSRWQQGNVFSCSVMHEALHNHYTQKSLSLSPGK | 65.9 | 39.2 | 67.2 | 0.34 | 14.5 | 2.4 | 66.1 | 1.59 | 5.33 | 7.31 | ~100 | ~1 | 
2 | bispecific antibody 132 (AFF3-3SS) (bispecific antibody) chain 1: not shown chain 2: QTVVTQEPSFSVSPGGTVTLTCGLSSGSVSTSHYPSWYQQTPGQAPRMLIYNTNTRSSGVPDRFSGSILGNKAALTITGAQADDESDYYCAIHVDRDIWVFGGGTKLTVLGGGGSGGGGSGGGGSQVQLVQSGGGVVQPGTSLRLSCAASGFIFSSSAMHWVRQAPGKGLEWVAVISYDGSNKYYVDSVKGRFTISRDNSKNTLYLQMNSLRAEDTAVYYCARSARLYASFDYWGQGALVTVSSGGGDKTHTCPPCPAPEAAGGPSVFLFPPKPKDTLMISRTPEVTCVVVDVSHEDPEVKFNWYVDGVEVHNAKTKPREEQYNSTYRVVSVLTVLHQDWLNGKEYKCKVSNKALPAPIEKTISKAKGQPREPQVCTLPPSREEMTKNQVSLSCAVKGFYPSDIAVEWESNGQPENNYKTTPPVLDSDGSFFLVSKLTVDKSRWQQGNVFSCSVMHEALHNHYTQKSLSLSPGK | 66.4 | 15.2 | 67.6 | 2.94 | 15.7 | 11.9 | 85.3 | 0.813 | 5.35 | 6.9 | ~300 | ~2 | ~30
3 | MGD009 (positive control bispecific antibody, three chains) (bispecific antibody, B7H3 monovalent B7H3xCD3 DART-Fc) chain 1: DIQLTQSPSFLSASVGDRVTITCKASQNVDTNVAWYQQKPGKAPKALIYSASYRYSGVPSRFSGSGSGTDFTLTISSLQPEDFATYYCQQYNNYPFTFGQGTKLEIKGGGSGGGGEVQLVESGGGLVQPGGSLRLSCAASGFTFSTYAMNWVRQAPGKGLEWVGRIRSKYNNYATYYADSVKDRFTISRDDSKNSLYLQMNSLKTEDTAVYYCVRHGNFGNSYVSWFAYWGQGTLVTVSSGGCGGGEVAALEKEVAALEKEVAALEKEVAALEKGGGDKTHTCPPCPAPEAAGGPSVFLFPPKPKDTLMISRTPEVTCVVVDVSHEDPEVKFNWYVDGVEVHNAKTKPREEQYNSTYRVVSVLTVLHQDWLNGKEYKCKVSNKALPAPIEKTISKAKGQPREPQVYTLPPSREEMTKNQVSLWCLVKGFYPSDIAVEWESNGQPENNYKTTPPVLDSDGSFFLYSKLTVDKSRWQQGNVFSCSVMHEALHNHYTQKSLSLSPGK chain 2: QAVVTQEPSLTVSPGGTVTLTCRSSTGAVTTSNYANWVQQKPGQAPRGLIGGTNKRAPWTPARFSGSLLGGKAALTITGAQAEDEADYYCALWYSNLWVFGGGTKLTVLGGGGSGGGGEVQLVESGGGLVQPGGSLRLSCAASGFTFSSFGMHWVRQAPGKGLEWVAYISSDSSAIYYADTVKGRFTISRDNAKNSLYLQMNSLRDEDTAVYYCGRGRENIYYGSRLDYWGQGTTVTVSSGGCGGGKVAALKEKVAALKEKVAALKEKVAALKE chain 3: not shown |  |  |  |  |  |  | 78.1 | 4.94 | 1.96 | 2.65 | ~100 | ~10 | 
